Results on 1 substance are retold here after publication PMC4741643.

The assay deals with suppressor of MEK null (sMEK1), full-length human, pGilda fusion (human) (UniProt Q6IN85). Nature of the assay: two-hybrid; EGY48 yeast cells; pGilda-sMEK1 as bait, pJG4-5 fusions as prey; growth on medium lacking leucine, blue colonies on X-gal plates with 2% galactose, β-galactosidase activity with ONPG.
Sequence of UniProt Q6IN85 (Q6IN85 whole entry, the tested form may be a part): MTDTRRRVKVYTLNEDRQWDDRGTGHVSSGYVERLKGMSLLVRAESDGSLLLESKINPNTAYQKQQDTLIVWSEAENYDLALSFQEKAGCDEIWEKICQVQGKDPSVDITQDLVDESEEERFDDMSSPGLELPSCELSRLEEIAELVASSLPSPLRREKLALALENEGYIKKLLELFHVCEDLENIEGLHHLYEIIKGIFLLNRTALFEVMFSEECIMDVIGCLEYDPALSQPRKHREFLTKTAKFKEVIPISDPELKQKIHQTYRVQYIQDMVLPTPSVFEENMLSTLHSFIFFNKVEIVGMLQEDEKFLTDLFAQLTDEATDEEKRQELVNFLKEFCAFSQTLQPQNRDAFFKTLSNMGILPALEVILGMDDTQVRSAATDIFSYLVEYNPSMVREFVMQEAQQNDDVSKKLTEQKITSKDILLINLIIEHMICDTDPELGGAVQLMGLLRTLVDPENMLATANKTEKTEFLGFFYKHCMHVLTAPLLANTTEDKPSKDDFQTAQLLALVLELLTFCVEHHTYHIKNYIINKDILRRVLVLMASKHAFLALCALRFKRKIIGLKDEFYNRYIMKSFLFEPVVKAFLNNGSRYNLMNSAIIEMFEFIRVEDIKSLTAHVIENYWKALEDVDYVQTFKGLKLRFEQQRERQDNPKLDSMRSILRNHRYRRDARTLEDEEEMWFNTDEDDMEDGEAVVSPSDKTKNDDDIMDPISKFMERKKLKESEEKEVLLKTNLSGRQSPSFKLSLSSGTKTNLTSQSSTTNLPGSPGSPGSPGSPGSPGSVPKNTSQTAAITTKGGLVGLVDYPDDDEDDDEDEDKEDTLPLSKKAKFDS

“vascular endothelial growth factor receptor 2 (VEGFR-2), full-length human, yeast two-hybrid construct (from UniProt P35968 1-1356)” yielded a β-galactosidase activity of 92.3 unit.
